From US20040115763A1

Biological target: secreted FLAG peptide-fused G6 polypeptide G6sec2 (produced with the pVL1393-F2G6sec2-derived recombinant virus) (human) (UniProt Q9BYG0)
Assay: Western blotting with anti-FLAG antibody

Substance: anti-FLAG peptide antibody (of YEAST AMINO-TERMINAL FLAG EXPRESSION KIT, manufactured by SIGMA)
- strength of band (band of G6sec1 eluate defined as 1) (relative to G6sec1 = 1): 1.05
